Literature values as cited in patent US20030166570A1, “Peptide and its use in the treatment of hyperpigmentation conditions” (priority 2001, published 2003).
Ends that are not written are not given here.

Biological target: MC-1 receptor (Homo sapiens, UniProt Q01726)
Details: rank order; physiologic range for signal transduction

Sequence of MC-1 receptor (Q01726 whole entry): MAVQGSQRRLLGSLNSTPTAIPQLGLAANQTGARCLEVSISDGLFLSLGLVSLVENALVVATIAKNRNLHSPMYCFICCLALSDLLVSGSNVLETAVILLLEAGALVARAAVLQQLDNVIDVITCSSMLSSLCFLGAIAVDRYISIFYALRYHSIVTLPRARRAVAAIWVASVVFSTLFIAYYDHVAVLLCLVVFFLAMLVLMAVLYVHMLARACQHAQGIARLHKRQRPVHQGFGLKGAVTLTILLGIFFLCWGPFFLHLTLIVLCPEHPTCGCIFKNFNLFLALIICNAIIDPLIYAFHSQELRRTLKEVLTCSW

relative affinities for the MC-1 receptor and stimulation of cAMP	Substance
no activity	ACTH 1-10: peptide fragment defined by residues 1-10 of ACTH
ACTH 1-17=α-MSH>ACTH	ACTH: 39-mer polypeptide hormone expressed in skin melanocytes and keratinocytes, derived from POMC (SYSMEHFRWGKPVGKKRRPVKVYPNGAEDESAEAFPLEF-NH2; UniProt P01189 138-176, looked up)
ACTH 1-17=α-MSH>ACTH	Ac-Ser^1-Tyr^2-Ser^3-Met^4-Glu^5-His^6-Phe^7-Arg^8-Trp^9-Gly^10-Lys^11-Pro^12-Val^13-NH2 [α-MSH]
